# Assays:
# elastase [1] = molecular target: T1, elastase (Sus scrofa, UniProt P00772); assay: pH stability (pH 3.0), recovery of EIC; format: physicochemical, porcine; details: pH 3.0 for 24 hours at +5° C.; for Recovery of EIC as % of Control After Adjustment to pH 7.4, Incubation Time 24 hrs. (5° C.): back to pH 7.40, further 24 hrs. at 5° C.; for Recovery of EIC as % of Control After Adjustment to pH 7.4, Immediate: then back to pH 7.40, assayed immediately
# T1 construct: purchased Sigma Chemicals Co. (St. Louis, MO)
# Description: In order to investigate the pH stability of these preparations, experimental samples were adjusted to pH 3.0 with controls at pH 7.40 and incubated for 24 hours at +5° C. Following this, pH was adjusted back up to 7.40 for the experimental samples and EIC assays carried out immediately. Samples were further incubated for 24 hours at +5° C. and reassayed.
# [2] = system: Antiserum (rabbit anti-human) to alpha-l-proteinase inhibitor; assay: Precipitin reaction with rabbit antiserum to the unmodified protein; format: binding; details: for Precipitin Reaction: rabbit antiserum dil. 1:2; for Amount of protein needed to obtain a strong precipitin reaction: rabbit antiserum to the unmodified protein
# Description: Antiserum (rabbit anti-human) to alpha-l-proteinase inhibitor was obtained from Miles Laboratories (Elkhart, IN).
# For unmodified alpha-1-proteinase inhibitor, only 0.092 μg of protein was sufficient to obtain a strong precipitin reaction. For the 0.117 moles dextran/mole alpha-1-proteinase inhibitor conjugate, 14.5 μg of alpha-1-proteinase inhibitor was needed to elicit a similar response--a very significant increase of antigen concentration. For the 0.585 moles dextran/mole alpha-1-proteinase inhibitor conjugate increase of antigen concentration up to 29.0 μg was not sufficient to obtain a strong precipitin reaction with the antiserum.
# [3] = molecular target: T2, Porcine pancreatic elastase type III (Sus scrofa, UniProt P00772); assay: Association rate constant (kassoc) between enzyme and inhibitor; format: biochemical; details: for t0.5 (half life of the enzyme-inhibitor association reaction) / kassoc, rate constant for the association between the enzyme and the inhibitor: equimolar enzyme and inhibitor, 3.37×10^-7, 37° C., pH 7.4; for kassoc, rate constant for the association between the enzyme and the inhibitor: calculated by equation (4); for Initial Reac. Rate: 37° C.
# T2 construct: purchased Sigma Chemicals Co. (St. Louis, MO)
# Description: Association constants (kassoc) between the enzyme (E) and the inhibitor (I) were determined as follows: 25 μl each of equimolar amounts of the enzyme and the inhibitor were incubated at 37° C. with 1950 μl of buffer (0.05M TRIS, 0.15M NaCl, pH 7.4) (TRIS® is tris(hydroxymethyl)amino methane, supplied by Sigma, St. Louis, Mo.) to obtain a resultant concentration of 3.37×10^-7. At various times, a 200 μl aliquot of the enzyme-inhibitor solution was added to 780 μl buffer and 20 μl substrate (SA3 pNA) (60 mM) and the hydrolysis rate followed in the temperature controlled (37° C.) cuvette with a recorder (Model 6051, Gilford Instruments, Oberlin, Ohio) attachment. During hydrolysis no further enzyme-inhibitor association was assumed (5 fold dilution compared to preincubation) and the initial reaction rate (v) was indicative of the free enzyme (E) present at the end of the respective preincubation times. Enzyme inhibitor association is represented as: [formula] for kdissoc .perspectiveto.0 and equimolar concentrations of E and I we get
# With initial conditions t=0, E=Eo (all free enzyme) equation (2) integrates to
# By defining half life of the reaction t0.5 to be at E=0.5Eo we get
# The initial reaction rate (Δ absorbance/5 minutes) depicts the hydrolysis rate of the substrate by the free enzyme present following the respective preincubation time. Initial reaction rate, in the absence of the inhibitor, was determined and the time required for this rate to decrease to half of its original value (t0.5) was calculated. Equation (4) was subsequently used to calculate kassoc for each of the 3 cases.
# [4] = molecular target: T2, Porcine pancreatic elastase type III; assay: Elastase inhibitory capacity (EIC) assay with chromogenic substrate SA3 pNA; format: biochemical; details: for % EIC Recovered: recovery across covalent coupling
# Source text: Porcine pancreatic elastase type III and chromogenic substrate N-succinyl-L-anlanyl-L-alanyl-L-alanyl-p-nitroanilide (SA3 pNA) were obtained from Sigma Chemicals Co. (St. Louis, MO). Hydrolysis of the chromogenic substrate by the elastase liberates p-nitroaniline which gives a yellow color whose absorbance is measurable spectrophotometrically (Model 1084 UV Spectrophotometer, Gilford Instruments, Oberlin, OH) at 405 nm.
# Comparisons of the linear changes of absorbance with time both in the presence and in the absence of sample alpha-l-proteinase inhibitor and of sample alpha-l-proteinase inhibitor-dextran covalent complex were made. The amount of inhibitor was then calculated based on the known molecular weights of the elastase and alpha-l-proteinase inhibitor, on the known 1:1 stoichrometry, and on the known amount of elastase used. A pool of normal human plasma (>1000 donors) was used as the standard and assigned a value of 1 μ/ml of α1 PI.
# porcine elastase = details: each at 1.4×10^-8 M; Beatty et al, J. Biol. Chem., 255, 3931 (1980); cited from earlier work
# elastase [5] = molecular target: T1, elastase; assay: Heat stability at 60° C., EIC readout; format: physicochemical, porcine; details: within 60 minutes (FIG. 1)
# Description: Alpha-1-proteinase inhibitor and its dextran conjugates, with and without added beef liver catalase as antioxidant, were heated in closed tubes at 60±0.2° C. The tubes were preheated and due to large mass difference the samples reached the bath temperature in less than 60 seconds. At designated time intervals samples were withdrawn and instantaneously cooled down (by ice bath) to room temperature prior to assay.
# A significant difference here is observed between the native protein and its conjugates.
# elastase [6] = molecular target: T1, elastase; assay: Oxidative inactivation by H2O2, recovery of EIC; format: physicochemical, porcine; details: 0-28 mM H2O2, 37° C., 1 hour, pH 7.4 (FIG. 2)
# Description: Hydrogen peroxide (30% solution, Sigma Chemicals) was used as the oxidation agent to investigate the effect of 0-28 mM H2 O2 on the recovery of elastase inhibitory capacity (EIC) following incubation at 37° C. for 1 hour.
# FIG. 2 (oxidation at pH 7.4) depicts the effects of various concentrations of H2 O2 on the samples. […] It is to be understood that any antioxidant enzyme may be used, e.g. catalase or an equivalent enzyme such as superoxide dismutase.
# [7] = bovine liver catalase modified with methoxypolyethylene glycol; Abuchowski et al; cited from earlier work
# T2 sequence (P00772 27-266): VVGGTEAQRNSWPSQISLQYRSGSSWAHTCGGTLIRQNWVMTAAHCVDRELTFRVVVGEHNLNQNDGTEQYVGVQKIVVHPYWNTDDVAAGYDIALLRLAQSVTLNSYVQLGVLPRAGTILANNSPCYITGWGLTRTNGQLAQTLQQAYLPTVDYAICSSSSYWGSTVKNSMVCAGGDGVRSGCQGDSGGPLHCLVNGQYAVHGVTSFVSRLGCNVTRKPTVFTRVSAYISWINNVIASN
# T1 sequence (P00772 27-266): as above
molecule,measurement,setting,value
"4: alpha-1-proteinase inhibitor-dextran complex, dextran mol. wt. 10,300, 100 mg inhibitor per gram of dextran, ratio 0.117 [Example 4]","Recovery of EIC as % of Control After Adjustment to pH 7.4, Incubation Time 24 hrs. (5° C.)",elastase [1],81%
same,"Recovery of EIC as % of Control After Adjustment to pH 7.4, Immediate",elastase [1],68%
same,Precipitin Reaction,[2]; antigen conc. 14.5 μg,Strong
same,Amount of protein needed to obtain a strong precipitin reaction,[2],14.5 µg
same,t0.5 (half life of the enzyme-inhibitor association reaction),[3],21.49 s
same,"kassoc, rate constant for the association between the enzyme and the inhibitor",[3],141000 M⁻¹ s⁻¹
same,Initial Reac. Rate,[3]; preincubation time 20 secs.,0.450 Δ absorbance/5 minutes
same,Initial Reac. Rate,[3]; preincubation time 45 secs.,0.285 Δ absorbance/5 minutes
same,Initial Reac. Rate,[3]; preincubation time 75 secs.,0.195 Δ absorbance/5 minutes
same,Initial Reac. Rate,[3]; preincubation time 120 secs.,0.130 Δ absorbance/5 minutes
same,% EIC Recovered,[4],28.8%
"5: alpha-1-proteinase inhibitor-dextran complex, dextran mol. wt. 10,300, 20 mg inhibitor per gram of dextran, ratio 0.585 [Example 5]","Recovery of EIC as % of Control After Adjustment to pH 7.4, Immediate",elastase [1],55%
same,Precipitin Reaction,[2]; antigen conc. 1.95 μg,Weak
same,Precipitin Reaction,[2]; antigen conc. 29.0 μg,Weak
same,Amount of protein needed to obtain a strong precipitin reaction,[2],> 29.0 µg
same,t0.5 (half life of the enzyme-inhibitor association reaction),[3],34.67 s
same,"kassoc, rate constant for the association between the enzyme and the inhibitor",[3],85600 M⁻¹ s⁻¹
same,Initial Reac. Rate,[3]; preincubation time 25 secs.,0.495 Δ absorbance/5 minutes
same,Initial Reac. Rate,[3]; preincubation time 65 secs.,0.285 Δ absorbance/5 minutes
same,Initial Reac. Rate,[3]; preincubation time 100 secs.,0.205 Δ absorbance/5 minutes
same,Initial Reac. Rate,[3]; preincubation time 145 secs.,0.135 Δ absorbance/5 minutes
same,% EIC Recovered,[4],18.4%
"Native α1 PI: human plasma glycoprotein alpha-1-proteinase inhibitor, molecular weight 53,000, purified from Cohn Fraction IV-1",kassoc,porcine elastase,1×10^5 M^-1 sec.^-1
same,"Recovery of EIC as % of Control After Adjustment to pH 7.4, Incubation Time 24 hrs. (5° C.)",elastase [1],66%
same,Precipitin Reaction,[2]; antigen conc. 0.092 μg,Strong
same,Amount of protein needed to obtain a strong precipitin reaction,[2],0.092 µg
same,"kassoc, rate constant for the association between the enzyme and the inhibitor",[3],185000 M⁻¹ s⁻¹
same,"kassoc, rate constant for the association between the enzyme and the inhibitor",[3]; listed as native protein,185000 M⁻¹ s⁻¹
same,Initial Reac. Rate,[3]; preincubation time 15 secs.,0.460 Δ absorbance/5 minutes
same,Initial Reac. Rate,[3]; preincubation time 30 secs.,0.310 Δ absorbance/5 minutes
same,Initial Reac. Rate,[3]; preincubation time 60 secs.,0.173 Δ absorbance/5 minutes
same,Initial Reac. Rate,[3]; preincubation time 65 secs.,0.170 Δ absorbance/5 minutes
same,Initial Reac. Rate,[3]; preincubation time 90 secs.,0.128 Δ absorbance/5 minutes
same,Elastase inhibitory capacity/mg total protein,[4]; purified from Cohn Fraction IV-1,1.5
same,Loss of initial activity (EIC) on heating,elastase [5],> 90%
same,Effect of H2O2 oxidation on EIC,elastase [6],significant progressive loss of EIC
"PEG-1900-catalase: bovine liver catalase covalently modified with methoxypolyethylene glycol of 1900 daltons using cyanuric chloride (Abuchowski et al) (conjugate, UniProt P00432 2-527, looked up, mPEG 1900) Catalase: ADNRDPASDQMKHWKEQRAAQKPDVLTTGGGNPVGDKLNSLTVGPRGPLLVQDVVFTDEMAHFDRERIPERVVHAKGAGAFGYFEVTHDITRYSKAKVFEHIGKRTPIAVRFSTVAGESGSADTVRDPRGFAVKFYTEDGNWDLVGNNTPIFFIRDALLFPSFIHSQKRNPQTHLKDPDMVWDFWSLRPESLHQVSFLFSDRGIPDGHRHMNGYGSHTFKLVNANGEAVYCKFHYKTDQGIKNLSVEDAARLAHEDPDYGLRDLFNAIATGNYPSWTLYIQVMTFSEAEIFPFNPFDLTKVWPHGDYPLIPVGKLVLNRNPVNYFAEVEQLAFDPSNMPPGIEPSPDKMLQGRLFAYPDTHRHRLGPNYLQIPVNCPYRARVANYQRDGPMCMMDNQGGAPNYYPNSFSAPEHQPSALEHRTHFSGDVQRFNSANDDNVTQVRTFYLKVLNEEQRKRLCENIAGHLKDAQLFIQKKAVKNFSDVHPEYGSRIQALLDKYNEEKPKNAVHTYVQHGSHLSAREKANL",Retained enzymatic activity,[7],93%
"PEG-5000-catalase: bovine liver catalase covalently modified with methoxypolyethylene glycol PEG-5000 using cyanuric chloride (Abuchowski et al) (conjugate, UniProt P00432 2-527, looked up, mPEG 5000) Catalase: ADNRDPASDQMKHWKEQRAAQKPDVLTTGGGNPVGDKLNSLTVGPRGPLLVQDVVFTDEMAHFDRERIPERVVHAKGAGAFGYFEVTHDITRYSKAKVFEHIGKRTPIAVRFSTVAGESGSADTVRDPRGFAVKFYTEDGNWDLVGNNTPIFFIRDALLFPSFIHSQKRNPQTHLKDPDMVWDFWSLRPESLHQVSFLFSDRGIPDGHRHMNGYGSHTFKLVNANGEAVYCKFHYKTDQGIKNLSVEDAARLAHEDPDYGLRDLFNAIATGNYPSWTLYIQVMTFSEAEIFPFNPFDLTKVWPHGDYPLIPVGKLVLNRNPVNYFAEVEQLAFDPSNMPPGIEPSPDKMLQGRLFAYPDTHRHRLGPNYLQIPVNCPYRARVANYQRDGPMCMMDNQGGAPNYYPNSFSAPEHQPSALEHRTHFSGDVQRFNSANDDNVTQVRTFYLKVLNEEQRKRLCENIAGHLKDAQLFIQKKAVKNFSDVHPEYGSRIQALLDKYNEEKPKNAVHTYVQHGSHLSAREKANL",Retained enzymatic activity,[7],95%
